Test results as given in article PMC8881611, “A mechanism of origin licensing control through autoinhibition of S. cerevisiae ORC·DNA·Cdc6” (Nature Communications, 2022).

T1: S. cerevisiae Orc1 (S. cerevisiae, UniProt P54784 1-914)
T1 construct: Orc1, S. cerevisiae, wild type; Stood in the assays as a subunit of ScORC·DNA(·Cdc6); also called ScOrc1; source: High5 insect cells, co-expressed and purified as a subunit of ScORC; not shown: His6, N-terminal, cleaved
T1 sequence (looked up): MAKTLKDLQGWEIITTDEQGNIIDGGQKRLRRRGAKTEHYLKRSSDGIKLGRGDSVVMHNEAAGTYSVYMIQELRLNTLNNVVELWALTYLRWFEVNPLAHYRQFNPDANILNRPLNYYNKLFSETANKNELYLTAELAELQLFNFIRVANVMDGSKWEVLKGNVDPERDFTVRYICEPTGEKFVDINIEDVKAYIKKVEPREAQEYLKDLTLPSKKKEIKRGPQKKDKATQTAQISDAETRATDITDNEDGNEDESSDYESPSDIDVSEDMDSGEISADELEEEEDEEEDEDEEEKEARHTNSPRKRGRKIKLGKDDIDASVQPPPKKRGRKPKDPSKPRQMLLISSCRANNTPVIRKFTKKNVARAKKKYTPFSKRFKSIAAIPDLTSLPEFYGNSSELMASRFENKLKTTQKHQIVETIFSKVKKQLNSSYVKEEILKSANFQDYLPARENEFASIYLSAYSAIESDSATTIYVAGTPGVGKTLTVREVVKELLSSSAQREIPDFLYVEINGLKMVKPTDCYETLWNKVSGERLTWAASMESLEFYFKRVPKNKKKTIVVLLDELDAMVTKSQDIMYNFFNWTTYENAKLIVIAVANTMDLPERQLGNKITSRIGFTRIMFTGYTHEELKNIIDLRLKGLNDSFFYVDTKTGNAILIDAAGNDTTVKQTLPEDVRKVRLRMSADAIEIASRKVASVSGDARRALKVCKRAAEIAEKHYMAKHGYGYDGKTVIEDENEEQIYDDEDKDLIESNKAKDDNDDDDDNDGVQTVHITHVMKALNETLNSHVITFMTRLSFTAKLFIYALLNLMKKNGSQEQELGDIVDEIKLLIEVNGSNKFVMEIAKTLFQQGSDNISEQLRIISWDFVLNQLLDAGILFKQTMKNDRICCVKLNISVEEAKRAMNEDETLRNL

B1: S. cerevisiae Cdc6 (ScCdc6), full length (natural protein, UniProt P09119 1-513, looked up)
chain: MSAIPITPTKRIRRNLFDDAPATPPRPLKRKKLQFTDVTPESSPEKLQFGSQSIFLRTKALLQKSSELVNLNSSDGALPARTAEYEQVMNFLAKAISEHRSDSLYITGPPGTGKTAQLDMIIRQKFQSLPLSLSTPRSKDVLRHTNPNLQNLSWFELPDGRLESVAVTSINCISLGEPSSIFQKIFDSFQDLNGPTLQIKNMQHLQKFLEPYHKKTTFVVVLDEMDRLLHANTSETQSVRTILELFLLAKLPTVSFVLIGMANSLDMKDRFLSRLNLDRGLLPQTIVFQPYTAEQMYEIVIQKMSSLPTIIFQPMAIKFAAKKCAGNTGDLRKLFDVLRGSIEIYELEKRFLLSPTRGSLNSAQVPLTPTTSPVKKSYPEPQGKIGLNYIAKVFSKFVNNNSTRTRIAKLNIQQKLILCTIIQSLKLNSDATIDESFDHYIKAITKTDTLAPLQRNEFLEICTILETCGLVSIKKTKCKGKTKRFVDKIDVDLDMREFYDEMTKISILKPFLH
notes: Cdc6, S. cerevisiae, wild type; also called co-loader; source: High5 insect cells, baculovirus, purified as ScORC (HisTrap, amylose, TEV cleavage, HisTrap, Superdex 200); not shown: His6, N-terminal, cleaved; MBP, N-terminal, cleaved

What was measured:
Test in all cases: cryo-EM structure; ScORC (2.5 uM), 84 bp ARS1 DNA (3 uM) and ScCdc6 (6.8 uM) reconstituted with 1 mM ATP, purified on Superose 6 in 25 mM HEPES-KOH pH 7.6, 250 mM potassium acetate, 10 mM magnesium acetate, 1 mM DTT, 0.2 mM ATP; not cross-linked; masked 3D classification
Details in all cases: both partners purified
[1] = biological target: B1
[2] = biological target: T2, S. cerevisiae Origin Recognition Complex (ScORC), full-length Orc1-6 (S. cerevisiae, UniProt P54784 1-914; P32833 1-620; P54790 1-616; P54791 1-529; P50874 1-479; P38826 …, mixture of unphosphorylated and phosphorylated Orc6, including established CDK sites (sites not given))
T2 construct: Orc1, S. cerevisiae, wild type; Orc2, S. cerevisiae, wild type; Orc3, S. cerevisiae, wild type; Orc4, S. cerevisiae, wild type; Orc5, S. cerevisiae, wild type; Orc6, S. cerevisiae, wild type; also called initiator; source: High5 insect cells co-infected with baculoviruses, purified (HisTrap, amylose, TEV cleavage, HisTrap, Sephacryl S-400); not shown: His6, N-terminal, cleaved; MBP, N-terminal, …

[3] = biological target: T1, S. cerevisiae Orc1

T2 sequence (P32833 whole entry, chain 2 of 4): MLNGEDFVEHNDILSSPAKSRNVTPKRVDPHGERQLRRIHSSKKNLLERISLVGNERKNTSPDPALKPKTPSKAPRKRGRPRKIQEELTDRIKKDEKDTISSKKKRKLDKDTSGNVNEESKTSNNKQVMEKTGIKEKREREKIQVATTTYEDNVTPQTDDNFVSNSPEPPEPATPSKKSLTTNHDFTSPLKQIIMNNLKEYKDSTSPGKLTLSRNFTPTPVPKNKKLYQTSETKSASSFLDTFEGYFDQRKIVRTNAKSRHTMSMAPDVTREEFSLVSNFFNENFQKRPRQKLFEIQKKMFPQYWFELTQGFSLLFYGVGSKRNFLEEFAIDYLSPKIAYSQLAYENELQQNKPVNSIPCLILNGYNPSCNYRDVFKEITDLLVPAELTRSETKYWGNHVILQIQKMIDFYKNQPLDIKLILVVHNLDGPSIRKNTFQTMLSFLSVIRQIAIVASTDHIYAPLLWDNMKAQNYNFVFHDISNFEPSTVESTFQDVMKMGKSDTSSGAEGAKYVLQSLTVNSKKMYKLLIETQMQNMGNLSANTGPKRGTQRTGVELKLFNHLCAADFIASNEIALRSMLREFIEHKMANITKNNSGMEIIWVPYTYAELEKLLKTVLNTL
T2 sequence (P54790 whole entry, chain 3 of 4): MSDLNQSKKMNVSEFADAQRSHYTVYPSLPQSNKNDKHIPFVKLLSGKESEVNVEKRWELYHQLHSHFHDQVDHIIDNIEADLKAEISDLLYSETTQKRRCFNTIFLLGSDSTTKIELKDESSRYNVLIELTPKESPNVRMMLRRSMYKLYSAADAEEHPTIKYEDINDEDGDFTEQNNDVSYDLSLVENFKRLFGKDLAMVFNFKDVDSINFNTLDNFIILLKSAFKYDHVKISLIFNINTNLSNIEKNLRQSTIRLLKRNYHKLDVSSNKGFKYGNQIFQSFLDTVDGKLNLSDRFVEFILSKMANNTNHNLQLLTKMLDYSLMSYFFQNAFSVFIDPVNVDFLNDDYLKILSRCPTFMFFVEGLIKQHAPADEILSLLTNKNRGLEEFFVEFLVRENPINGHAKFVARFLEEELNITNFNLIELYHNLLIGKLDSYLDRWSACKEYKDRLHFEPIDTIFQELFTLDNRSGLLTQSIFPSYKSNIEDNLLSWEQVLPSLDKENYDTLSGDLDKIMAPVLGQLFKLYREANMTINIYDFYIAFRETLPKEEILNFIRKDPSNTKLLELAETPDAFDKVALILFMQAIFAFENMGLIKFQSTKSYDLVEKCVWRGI
T2 sequence (P54791 whole entry, chain 4 of 4): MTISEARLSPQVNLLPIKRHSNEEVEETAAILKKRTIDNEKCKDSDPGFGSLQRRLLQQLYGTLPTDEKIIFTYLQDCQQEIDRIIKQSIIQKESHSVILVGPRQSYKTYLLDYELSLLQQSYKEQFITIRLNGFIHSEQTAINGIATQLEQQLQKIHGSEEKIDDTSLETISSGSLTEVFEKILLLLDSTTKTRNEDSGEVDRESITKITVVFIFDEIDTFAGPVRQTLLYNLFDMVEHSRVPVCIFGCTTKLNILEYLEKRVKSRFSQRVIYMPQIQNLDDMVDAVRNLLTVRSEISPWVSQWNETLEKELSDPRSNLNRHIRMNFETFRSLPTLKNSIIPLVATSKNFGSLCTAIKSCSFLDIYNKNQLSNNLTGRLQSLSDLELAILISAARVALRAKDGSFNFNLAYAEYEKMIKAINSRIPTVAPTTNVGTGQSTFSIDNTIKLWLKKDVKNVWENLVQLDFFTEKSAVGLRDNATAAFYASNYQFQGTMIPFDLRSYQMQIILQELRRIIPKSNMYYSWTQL
T2 sequence (P50874 whole entry, chain 5 of 4): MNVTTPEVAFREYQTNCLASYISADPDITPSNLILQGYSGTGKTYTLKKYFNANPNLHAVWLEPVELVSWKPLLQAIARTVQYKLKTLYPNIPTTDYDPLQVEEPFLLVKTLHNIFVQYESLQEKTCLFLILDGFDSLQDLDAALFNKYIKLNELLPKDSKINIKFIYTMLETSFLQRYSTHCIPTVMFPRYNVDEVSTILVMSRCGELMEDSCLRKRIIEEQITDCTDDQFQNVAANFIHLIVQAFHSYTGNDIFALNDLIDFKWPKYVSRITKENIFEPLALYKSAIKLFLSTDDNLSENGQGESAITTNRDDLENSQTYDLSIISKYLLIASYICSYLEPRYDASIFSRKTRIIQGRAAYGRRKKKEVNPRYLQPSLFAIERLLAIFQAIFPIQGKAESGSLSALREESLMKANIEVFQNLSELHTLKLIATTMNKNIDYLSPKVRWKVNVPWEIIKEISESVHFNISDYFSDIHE

Binder	binding result [1]	binding result [2]	binding result [3]
S. cerevisiae Orc6 (natural protein, UniProt P38826 1-435, looked up, mixture of unphosphorylated and phosphorylated Orc6, including established CDK sites (sites not given), Orc6, S. cerevisiae, wild type; Stood in the assays as a subunit of ScORC·DNA(·Cdc6); also called ScOrc6; holds Orc6-CBN (N-terminal cyclin box fold) and Orc6-CBC (C-terminal cyclin box fold); source: High5 insect cells, co-expressed and purified as a subunit of ScORC) MSMQQVQHCVAEVLRLDPQEKPDWSSGYLKKLTNATSILYNTSLNKVMLKQDEEVARCHICAYIASQKMNEKHMPDLCYYIDSIPLEPKKAKHLMNLFRQSLSNSSPMKQFAWTPSPKKNKRSPVKNGGRFTSSDPKELRNQLFGTPTKVRKSQNNDSFVIPELPPMQTNESPSITRRKLAFEEDEDEDEEEPGNDGLSLKSHSNKSITGTRNVDSDEYENHESDPTSEEEPLGVQESRSGRTKQNKAVGKPQSELKTAKALRKRGRIPNSLLVKKYCKMTTEEIIRLCNDFELPREVAYKIVDEYNINASRLVCPWQLVCGLVLNCTFIVFNERRRKDPRIDHFIVSKMCSLMLTSKVDDVIECVKLVKELIIGEKWFRDLQIRYDDFDGIRYDEIIFRKLGSMLQTTNILVTDDQYNIWKKRIEMDLALTEPL	binds	–	–
B1	–	binds	binds
